In publication PMC5827449, “Structural analysis of group II chitinase (ChtII) catalysis completes the puzzle of chitin hydrolysis in insects” (The Journal of Biological Chemistry, 2018):

B1: OfChtII-C2 (Ostrinia furnacalis) (protein)
chain: ERFKVVCYYTNWAWYRPDNGKYTPGDINPELCTHIIYAFAVLDKEELVIKSHDIWLDVENKFYEKVTALKSHGVKVLLGLGGWDDSAGDKYSRLVNNVSARRKFVVHAVDFLEQYGFDGLDLDWEYPKCWQVECEKGPDSDKQGFADLVKELRKAFNRRGMLLSAAVSASKRVIDYAYNVPALSMNLDWISLMTYDYHGQWDKKTGHVAPMYVHDKDTDNTFNVNFTVNYWINKGADRKKLVVGVPFYGQSFSVVEGAGTGLGAPTYAGGEAGDETRARGFLSFYEICERVKVKGWKVHRDPGGRIGPYATHDDQWVSFDDDFMARHKAEYVRAMELGGSMAWSLDLDDFTGKYCGCGKAPLLTTINHVLRGKEAPPPCIL
notes: single GH18 catalytic domain C2 (barrel 2059-2301 and 2377-2426); His-tag purified from Pichia pastoris GS115
B2: OfChi-h (Ostrinia furnacalis) (protein)
chain: APPGKPSLGWGERTFAIVEVNQAATAYNQLVTKRDSADVSVTWNVWSGDPADKARVLLNDKEFWSGTGGAAGSASFKVKKGGRYQMVVELCNADGCSQSDATEIIVADTDGSHLPPLDYNMGEKNKPFKQTSGKVVGAYFVEWGVYPRKFPVDRVPIPNLTHLLYGFIPICGGDGINDSLKEIEGSFQALQRSCSGREDFKVSIHDPWAALQKPQKGLSSWNEPYKGNFGQLMMLKQAKPDLKILPSIGGWTLADPFFFFTDETKRRRFVASVKDFLQTWKFFDGVDIDWEFPGGKGANPNLGSPKDGEIYVLLMKELREMLNELSAETGRKYELTSAISAGWDKIQVVDYSAAQKYMDHIFFMSYDFKGAWSNDTLGHQASLYAPDWNEKETYTTDFGVQFLLAQGVSPKKIVVGVAMYGRGWTGVHGYKDNNPFTGNATGPVKGTWQDGVVDYREIATEIAQGKWEYHYDKVAQAPYVFRPATGDLITYDDARSTIEKGKYVRANKLGGLFAWEIDADNGDILNAMNMGLGNSA

Columns and labels:
[1] = substrate: CC(=O)N[C@H]1[C@H](Oc2ccc3c(C)cc(=O)oc3c2)O[C@H](CO)[C@@H](O[C@@H]2O[C@H](CO)[C@@H](O)[C@H](O)[C@H]2NC(C)=O)[C@@H]1O; assay: fluorescence of released 4-methylumbelliferone; assay type: biochemical, Ostrinia furnacalis; conditions: pH 6.0, 20 mM sodium phosphate, 303 K, 20 min, 30.0 °C
Text: fluorescence of released 4-methylumbelliferone on OfChtII-C2

[2] = substrate: CC(=O)N[C@H]1[C@H](Oc2ccc3c(C)cc(=O)oc3c2)O[C@H](CO)[C@@H](O[C@@H]2O[C@H](CO)[C@@H](O)[C@H](O)[C@H]2NC(C)=O)[C@@H]1O; assay: fluorescence of released 4-methylumbelliferone; assay type: biochemical, Ostrinia furnacalis; conditions: pH 6.0, 20 mM sodium phosphate, 303 K, 20 min, 30.0 °C; remark: listed apart in the source
Text: fluorescence of released 4-methylumbelliferone on OfChi-h

| Protein | Km [1] | kcat [1] | kcat/Km [1] | Km [2] | kcat [2] | kcat/Km [2] |
| --- | --- | --- | --- | --- | --- | --- |
| B1 | 11.93 ± 0.50 µM | 0.2037 ± 0.0025 s⁻¹ | 17000 M⁻¹ s⁻¹ | – | – | – |
| B2 | – | – | – | 7.32 ± 0.35 µM | 3.1378 ± 0.0885 s⁻¹ | 429000 M⁻¹ s⁻¹ |
